Results as given in US20260265360A1, “USE OF ANTI-FAM19A5 ANTAGONISTS FOR TREATING HEARING DISORDERS” (NEURACLE SCIENCE CO., LTD., priority 2023, published 2026).

B1: 1-30: anti-FAM19A5 antibody, de-immunized variant of 3-2; VH SEQ ID NO: 235, VL SEQ ID NO: 240 (antibody, V domains shown)
VH: AVTLDESGGGLQTPGGALRLSCKASGFDFESFNMFWVRQAPGKGLEYVSQISSSEEDENYAPAVKGRATISRDNGQSTLYLQMNSLRAEDTGTYYCAKSSYDCPYGHCSSGVDSAGEIDAWGHGTEVIVSS
VL: ALTQPSSVSANPGETVKITCSGGGSEEEQYYYGWYQQKPGSAPVTLIYQDEERPSDIPSRFSGSTSGSTATLTITGVQAGDEADYYCGSWDSEDEDHFGAGTTLTVL
modifications: Low-PI VH, 1-30 VH, 1-17 VH, 1-32 VH, 4-11 VH, 6-10 VH; 1-30 VL
B2: 2-13: anti-FAM19A5 antibody; VH SEQ ID NO: 35, VL SEQ ID NO: 39 (antibody, V domains shown)
VH: AVTLDESGGGLQTPGGALSLVCKASGFTFSSHGMFWVRQTPGKGLEYVAEITNDGSGTNYGSAVKGRATISRDNGQSTVRLQLNNLRAEDTGTYFCARSTYECPGGFSCWGDTGQIDAWGHGTEVIVSS
VL: ALTQPSSVSANPGETVKITCSGGSYSYGWFQQKSPGSALVTVIYWDDERPSDIPSRFSGALSGSTNTLTITGVQADDEAVYFCGTEDISGTAGVFGAGTTLTVL
modifications: 2-13 VH; 2-13 VL

Key:
[1] = system: noise-induced hearing loss mouse model; test: Noise-induced hearing loss mouse model, first antibody dose 2 hours post noise exposure; format: in vivo; conditions: first dose 2 hours post noise
Experimental: FIGS. 13A, 13B, 13C, 13D, and 13E show the therapeutic effect of FAM19A5 antagonists (administered 2 hours after noise induction) on auditory brainstem response (ABR) threshold in a noise-induced hearing loss mouse model. The overall design was similar as that provided in FIG. 6A, except that the antibodies were administered to the animals at 2 hours post noise induction. FIG. 13A provides the results before noise exposure. FIG. 13B provides the results at one day post noise exposure. FIG. 13C provides the results at two weeks post noise exposure. FIG. 13D provides the results at four weeks post noise exposure. FIG. 13E provides the results at eight weeks post noise exposure. ABR threshold was measured at a frequency ranging from 4 kHz to 64 kHz.
FIGS. 14A and 14B show the effect of FAM19A5 antagonists on ABR I/O function in a noise-induced hearing loss mouse model. FIG. 14A provides comparisons of wave I amplitude (1st graph) and wave IV amplitude (2nd graph) in animals treated with the anti-FAM19A5 antibody (square), before noise group (triangle) or control IgG antibody (circle) 2 weeks after noise exposure. FIG. 14B provides comparisons of wave I amplitude (1st graph) and wave IV amplitude (2nd graph) in animals treated with the anti-FAM19A5 antibody (square), before noise group (triangle) or control IgG antibody (circle) 4 weeks after noise exposure. Tone bursts were measured across 0 and 90 dB.
Next, to assess whether the timing of the anti-FAM19A5 antibody administration has an effect, the above-described noise-induced hearing loss mouse model was used again. Again, to induce hearing loss, the animals were exposed to a temporary threshold shift (TTS) of 105 decibels for 30 minutes. An anti-FAM19A5 antibody (1-30 antibody) or a control human IgG antibody was intravenously administered to the animals once weekly for 5 total administration (30 mg/kg per dose). […] Hearing loss was assessed (e.g., by measuring ABR threshold, DPOAE threshold, and/or DPOAE amplitude) in the animals prior to the noise exposure and then again at one day, two weeks, and four weeks post noise exposure.

[2] = system: primary mouse spiral ganglion neurons; test: Promotion of neurite outgrowth; format: cell-based; conditions: neurons isolated at postnatal day 4; neurofilament staining
Experimental: Sprial ganglion neuron were cultured in culture media consisting of high-glucose (4.5 mg/mL) DMEM, 0.1 mg/ml penicillin, 0.1 mg/mL streptomycin, N2 supplement, and 10 µg/mL insulin and was designated here as “5K” because in this media, [K+]=5.4 mM. A depolarizing media, designated as “30K,” in which Na was replaced with equimolar K to raise [K] to 30 mM while maintaining osmolarity was also used.
Dissociated spiral ganglion cell cultures were prepared from postnatal day 4-5 (P4-5) cochleae and maintained using a procedure modified from the methods described by Bok et al., J Neurosci 23 (3): 777-87 (2003), which is incorporated herein by reference in its entirety. The cochleae were aseptically dissected from the temporal bone and submerged in ice-cold HBSS (Gibco). Subsequent steps involved the removal of the bony cochlear capsule and the spiral ligament. The organ of Corti, surrounding connective tissue and modiolar bone was removed while preserving the spiral ganglion neurons within the modiolus. […]
Neurite outgrowth was quantified by measuring the total length of neurites per neuron. Neurons were stained with NF200 at either 2 or 3 DIV, and neurite lengths were measured using the Fiji (Image J). Individual neurons were manually selected, and neurite lengths were determined using the Simple Neurite Tracer plugin. […]

[3] = 2 and 4 weeks after noise, particularly at higher tone-burst levels

Row | Molecule | ABR threshold vs control antibody ([1]; 30 mg/kg i.v. weekly x5) | Wave I amplitude vs control antibody [1, 3] | Wave IV amplitude vs control antibody [1, 3] | neurite length vs control human IgG antibody [2]
1 | B1 | did not appear to be any significant differences | noticeable differences were observed | noticeable differences were observed | promoting neurite outgrowth
2 | B2 | – | – | – | promoting neurite outgrowth
